Data on 46 molecules can be found in patent publication US20260092093A1 (TJ BIOPHARMA SHANGHAI, published 2026).

Substitutions are numbered along the chain they refer to.

T1: hIL-18Rα ECD-Fc fusion protein (human, UniProt Q13478 22-329)
T1 construct: extracellular domain; captured on Protein A sensor
T1 sequence (looked up): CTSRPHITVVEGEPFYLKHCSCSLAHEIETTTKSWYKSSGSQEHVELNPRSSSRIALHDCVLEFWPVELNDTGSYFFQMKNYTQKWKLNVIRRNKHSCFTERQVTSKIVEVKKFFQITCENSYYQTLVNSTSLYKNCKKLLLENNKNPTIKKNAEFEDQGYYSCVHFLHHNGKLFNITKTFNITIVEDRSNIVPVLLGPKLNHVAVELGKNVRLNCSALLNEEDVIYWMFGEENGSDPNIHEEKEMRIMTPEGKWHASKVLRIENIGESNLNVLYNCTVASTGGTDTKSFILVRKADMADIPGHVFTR

T2: recombinant hIL-18Rα extracellular domain (human, UniProt Q13478 22-329, biotin label (selection) or fluorescent probe (single-clone FACS), sites not given)
T2 construct: extracellular domain; also called hIL-18Rα ECD; hIL-18Rα-ECD
T2 sequence (looked up): T1 sequence (looked up)

B1: IL-18 variant polypeptide M1 (ligand)
chain: YFPKLKSKLSVIRNLNDQVLFIDQGNRPLFEDMTDSDCRDNAPRTIFIISMYKHSDRRGMAVTISVKCEKISTLSCENKIISFKEMNPPDVIKDTKSDIIFFQVSVPGHDNKMQFESSSYEGYFLACEKERDLFKLILKKEDELGDRSIMFTVQNED
B2: SEQ ID NO 92 (ligand)
chain: B1 chain with P3W, K6S, H54Q, D56L, V91R, V104A
B3: SEQ ID NO 106 (ligand)
chain: B1 chain with K6S, H54A, D56S, R57L, V91S, V104R
B4: SEQ ID NO 71 (ligand)
chain: B1 chain with K6Y, D56T, R57N, V91G, V104R
B5: SEQ ID NO 86 (ligand)
chain: B1 chain with K6N, H54L, D56T, R57V, V91P, V104H
B6: SEQ ID NO 57 (ligand)
chain: B1 chain with D56R, R57A, V91S, V104T
B7: SEQ ID NO 64 (ligand)
chain: B1 chain with K6N, H54V, S55P, D56T, R57A, V91A, V104R
B8: SEQ ID NO 109 (ligand)
chain: B1 chain with P3K, K6P, H54L, D56S, R57E, V91N, V104R
B9: SEQ ID NO 83 (ligand)
chain: B1 chain with P3W, K6W, H54P, D56N, R57F, V104G
B10: SEQ ID NO 98 (ligand)
chain: B1 chain with K6T, H54Y, D56T, V91N, V104R
B11: SEQ ID NO 97 (ligand)
chain: B1 chain with H54T, D56F, R57N, V104R
B12: SEQ ID NO 110 (ligand)
chain: B1 chain with K6N, H54L, D56P, V91N, V104R
B13: SEQ ID NO 113 (ligand)
chain: B1 chain with K6R, H54I, D56I, R57S, V91N, V104R
B14: SEQ ID NO 95 (ligand)
chain: B1 chain with P3W, K6S, H54L, D56T, R57W, V91Y, V104R
B15: SEQ ID NO 69 (ligand)
chain: B1 chain with K6V, H54W, D56A, R57I, V104T
B16: SEQ ID NO 115 (ligand)
chain: B1 chain with K6G, H54I, D56H, R57D, V91T, V104S
B17: SEQ ID NO 93 (ligand)
chain: B1 chain with P3G, K6P, H54L, D56N, V91G, V104R
B18: SEQ ID NO 111 (ligand)
chain: B1 chain with K6E, H54Y, D56S, R57K, V91G, V104R
B19: SEQ ID NO 89 (ligand)
chain: B1 chain with K6A, D56S, R57K
B20: SEQ ID NO 112 (ligand)
chain: B1 chain with K6R, D56T, R57N, V91I, V104I
B21: SEQ ID NO 70 (ligand)
chain: B1 chain with K6R, H54W, D56G, R57G, V91A, V104L
B22: SEQ ID NO 60 (ligand)
chain: B1 chain with D56S, R57T, V104C
B23: SEQ ID NO 85 (ligand)
chain: B1 chain with H54W, D56G, R57G, V91S, V104F
B24: SEQ ID NO 96 (ligand)
chain: B1 chain with K6H, H54R, D56T, R57L, V91G, V104R
B25: SEQ ID NO 79 (ligand)
chain: B1 chain with K6G, H54W, D56Q, R57P, V104Y
B26: SEQ ID NO 84 (ligand)
chain: B1 chain with H54M, D56S, R57A, V91G, V104S
B27: SEQ ID NO 80 (ligand)
chain: B1 chain with K6R, H54W, D56Y, R57P, V91G, V104F
B28: SEQ ID NO 77 (ligand)
chain: B1 chain with K6R, D56Y, R57T, V91I, V104Y
B29: SEQ ID NO 90 (ligand)
chain: B1 chain with K6R, H54S, D56L, R57K, V91T, V104S
B30: SEQ ID NO 67 (ligand)
chain: B1 chain with P3T, K6R, H54L, D56H, R57L, M60I, V91A, V104S
B31: SEQ ID NO 88 (ligand)
chain: B1 chain with K6S, D56S, V104A
B32: SEQ ID NO 63 (ligand)
chain: B1 chain with K6Q, H54L, D56T, R57P, V91A, V104R
B33: SEQ ID NO 76 (ligand)
chain: B1 chain with H54W, D56W, R57A, V91L, V104Y
B34: SEQ ID NO 61 (ligand)
chain: B1 chain with H54F, D56T, R57E, V91P, V104R
B35: SEQ ID NO 102 (ligand)
chain: B1 chain with K6R, H54F, D56N, R57F, V91A, V104S
B36: SEQ ID NO 100 (ligand)
chain: B1 chain with P3S, K6P, H54Y, D56T, R57W, V91F, V104S
B37: SEQ ID NO 75 (ligand)
chain: B1 chain with K6G, D56S, V104N
B38: SEQ ID NO 118 (ligand)
chain: B1 chain with K6A, H54W, D56N, R57A, V91S, V104R
B39: SEQ ID NO 108 (ligand)
chain: B1 chain with K6G, H54Q, D56H, R57Y, V91N, V104R
B40: SEQ ID NO 68 (ligand)
chain: B1 chain with H54W, D56P, R57W, V91N, V104T
B41: SEQ ID NO 78 (ligand)
chain: B1 chain with P3K, K6P, R13H, H54L, D56S, R57E, V91N, V104R
B42: SEQ ID NO 82 (ligand)
chain: B1 chain with K6R, H54L, D56T, R57I, V91Y, V104R
B43: SEQ ID NO 103 (ligand)
chain: B1 chain with P3S, K6P, H54W, D56P, V91I, V104S
B44: SEQ ID NO 87 (ligand)
chain: B1 chain with K6G, H54G, D56H, R57F, V91G, V104S
B45: SEQ ID NO 101 (ligand)
chain: B1 chain with H54L, D56R, R57T, V91F, V104S
B46: SEQ ID NO 107 (ligand)
chain: B1 chain with K6T, H54T, D56Y, R57E, V104R

The first experiment addresses T1, hIL-18Rα ECD-Fc fusion protein. The experiment can be described thus: BLI (Octet RED96), hIL-18Rα ECD-Fc on Protein A sensor. On the procedure: The affinities of IL-18 variant polypeptides for hIL-18Rα were assessed by Biolayer Interferometry (BLI) on Octet RED96 using Protein A sensor coated with hIL-18Rα ECD-Fc fusion protein, and WT hIL-18 was used as a control.
(In general: BLI is a label-free optical method that tracks binding on a fibre tip over time.)
Take B1: the Kd (usually the concentration at which binding is half-saturated) stood at 2.03 µM; the “Response (nm)” value is 0.0186 nm; the koff (in general, the rate constant with which the complex falls apart) was 0.111 s⁻¹; the kon (commonly a measure of how fast the partners come together) is 54400 M⁻¹ s⁻¹.

The target of a further experiment is T2, recombinant hIL-18Rα extracellular …. In words: single-clone FACS, yeast display, 10 nM labelled hIL-18Rα ECD. On the procedure: Following the screens described in Example 2, single clone FACS analysis was performed to verify the binding of selected yeast cell surface-expressed IL-18 variant polypeptides from Round 4 and Round 5 to 10 nM hIL-18Rα-ECD. Briefly, each yeast clone at the same density was incubated with 10 nM IL-18Rα-ECD labeled by fluorescent probe, respectively, followed by washing step. Then the ratio of fluorescent positive IL-18Rα ECD binding yeasts in the population of each clone were analyzed.
Turning to B1, the “% of fluorescence positive cells” value was 89.8%.
Still for that read-out and setting: for B2 the value was 4.48%; for B3, 1.34%.
With B4, the “% of fluorescence positive cells” value turned out to be 45.1%.
On to B5, for which the “% of fluorescence positive cells” value came out at 9.28%.
Take B6: the “% of fluorescence positive cells” value was found to be 79%.
As for B7, the “% of fluorescence positive cells” value turned out to be 70.8%.
In the case of B8, the “% of fluorescence positive cells” value worked out at 0.98%.
On the same count and under the same terms, for B9 the value was 13.5%; for B10, 2.36%; for B11, 2.66%.
As for B12, the “% of fluorescence positive cells” value is 0.71%.
For the molecule B13, the “% of fluorescence positive cells” value was 0.61%.
On the same count and under the same terms, for B14 the value was 3.45%; for B15, 60.9%; for B16, 0.35%.
Same read-out and setting: for B17 the value was 4.48%; for B18, 0.69%.
Turning to B19, the “% of fluorescence positive cells” value was 5.27%.
On the same count and under the same terms, for B20 the value was 0.69%; for B21, 51.3%; for B22, 76.5%.
Same read-out and setting: for B23 the value was 10.8%; for B24, 2.79%; for B25, 21.5%.
In the case of B26, the “% of fluorescence positive cells” value was determined as 11.5%.
With B27, the “% of fluorescence positive cells” value came out at 18.6%.
On the same count and under the same terms, for B28 the value was 28.4%.
The same measure, in the same setting: then B29, with 5.15%; and B30, with 66.4%; and B31, with 5.45%.
As to B32, the “% of fluorescence positive cells” value was 72.6%.
For B33, the “% of fluorescence positive cells” value was found to be 29.7%.
With B34, the “% of fluorescence positive cells” value is 76.1%.
For B35, the “% of fluorescence positive cells” value came out at 1.64%.
For B36, the “% of fluorescence positive cells” value was 2.16%.
For B37, the “% of fluorescence positive cells” value was determined as 30%.
For B38, the “% of fluorescence positive cells” value worked out at 0.15%.
On the same count and under the same terms, for B39 the value was 1.08%.
Still for that read-out and setting: for B40 the value was 60.9%; for B41, 27.8%; for B42, 14.5%.
Still for that read-out and setting: for B43 the value was 1.44%; for B44, 6.12%; for B45, 1.91%.
With B46, the “% of fluorescence positive cells” value was 1.23%.
